Laboratory results: the supplement of paper PMC9732359
± gives the uncertainty stated by the source.

Assay: protein stability index of a GFP-peptide fusion (yeast GPS) (PSI 1-4); higher = more stable; sorted into four equal gates, so the index is relative within each strain
Summary of the method: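 Plasmids isolated from each sorting gate were PCR-amplified and Illumina-sequenced, and barcodes assigned the reads to strains. The gates, four of equal size, were set by GFP/Cherry fluorescence ratio on mid-log cultures in leucine-free medium. These cultures were yeast carrying a pooled library of tiled 17-residue yeast protein peptides fused downstream of GFP on a plasmid that also expresses Cherry. The protein stability index is the sum of every gate's read frequency times its gate number.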

| Sequence | protein stability index (doa10∆) | protein stability index (pdr5∆) | protein stability index (san1∆) | protein stability index (ubr1∆) |
| --- | --- | --- | --- | --- |
| PISEKGLTLSTTNLDID [RPP1] | 2.82 ± 0.052 | 2.92 ± 0.041 | 3.05 ± 0.034 | 2.9 ± 0.049 |
| PITGASLDLIKERRSLK [RPL24A] | 3.04 ± 0.097 | 3.07 ± 0.078 | 3.02 ± 0.067 | 2.98 ± 0.06 |
| PITSETAMKKVEDGNIL [RPL25] | 3.05 ± 0.16 | 3.18 ± 0.095 | 3.12 ± 0.22 | 3.24 ± 0.15 |
| PKARQELPTQLALEIIV [RRP46] | 1.77 ± 0.046 | 1.76 ± 0.045 | 1.52 ± 0.11 | 2.07 ± 0.054 |
| PKASSAKFFLNVSDEQL [ITC1] | 3.1 ± 0.094 | 3.18 ± 0.055 | 3.17 ± 0.063 | 3.23 ± 0.075 |
| PKDPSNVETYEQILQWV [BRR2] | 2.77 ± 0.079 | 2.48 ± 0.098 | 2.91 ± 0.11 | 2.88 ± 0.12 |
| PKMKDEEYDDDDDNSNV [SNF2] | 3.4 ± 0.095 | 3.37 ± 0.16 | 3.23 ± 0.072 | 3.27 ± 0.15 |
| PKNIEPPLTSQYSTRHD [SWI3] | 3.07 ± 0.048 | 3.02 ± 0.059 | 3.04 ± 0.041 | 3.03 ± 0.042 |
| PKNQQYRAFGSIWQVKD [MED7] | 2.45 ± 0.084 | 2.7 ± 0.082 | 2.54 ± 0.08 | 2.64 ± 0.063 |
| PKNSKTPQSKGFVRNSF [RPO31] | 3.17 ± 0.15 | 3.03 ± 0.14 | 2.92 ± 0.12 | 3.18 ± 0.068 |
| PKNYSLHGLRSFYDAIF [YJL039C/NUP192] | 2.53 ± 0.042 | 2.61 ± 0.041 | 2.37 ± 0.043 | 2.4 ± 0.041 |
| PKSTKGKILTIKQQQQQ [YML103C/NUP188] | 2.39 ± 0.038 | 2.59 ± 0.046 | 2.42 ± 0.062 | 2.52 ± 0.04 |
| PKYIDELKTRDATNTSY [SWP82] | 2.68 ± 0.095 | 3.12 ± 0.072 | 2.58 ± 0.079 | 2.94 ± 0.05 |
| PLDDAGTIGWDLGITEK [MCD1] |  |  |  | 3.05 ± 0.16 |
| PLLARKQFVVDVLHPNR [RPS24A] | 1.58 ± 0.14 | 1.83 ± 0.072 | 1.72 ± 0.12 | 1.62 ± 0.071 |
| PLLESFITFSLDDWISI [IRR1] | 3.04 ± 0.078 | 2.46 ± 0.063 | 2.5 ± 0.054 | 2.54 ± 0.052 |
| PLLPIVEELMKKRRGSR [SNU114] | 2.4 ± 0.11 | 2.79 ± 0.12 | 2.87 ± 0.074 | 2.83 ± 0.13 |
| PLLSLDVTPISMFGSDQ [RPN4] | 2.75 ± 0.12 | 2.79 ± 0.18 | 3.12 ± 0.13 | 3.18 ± 0.17 |
| PLLYNSLCTVWKPNPSY [SRB5] | 1.99 ± 0.11 | 1.68 ± 0.062 | 2.21 ± 0.11 | 2.13 ± 0.1 |
| PLPPRIDPSVTMMTVEE [RPT1] | 2.16 ± 0.08 | 1.9 ± 0.076 | 2.12 ± 0.17 | 1.88 ± 0.062 |

| Sequence | protein stability index (doa10∆) | protein stability index (pdr5∆) | protein stability index (san1∆) | protein stability index (ubr1∆) |
| --- | --- | --- | --- | --- |
| PLPTPFKVDDNVDFPSA [RPN2] | 2.94 ± 0.054 | 2.75 ± 0.043 | 2.6 ± 0.074 | 2.63 ± 0.052 |
| PLSQDELISLRKILESS [YIL149C/MLP2] | 2.45 ± 0.077 | 2.67 ± 0.067 | 2.15 ± 0.076 | 2.32 ± 0.093 |
| PMVSVMKMDKSPTESYS [RPT2] | 1.64 ± 0.11 | 1.57 ± 0.088 | 1.11 ± 0.2 | 1.71 ± 0.093 |
| PNEFEIQLSTVNRQSPL [RGR1] | 2.19 ± 0.063 | 2.65 ± 0.057 | 2.69 ± 0.054 | 2.45 ± 0.055 |
| PNELSQILTVDPKTSLR [RPC82] | 2.2 ± 0.069 | 1.91 ± 0.059 | 2.33 ± 0.067 | 2.45 ± 0.053 |
| PNPNNMKTVQSPMGAQP [GAL11] | 3.21 ± 0.13 | 2.96 ± 0.095 | 2.96 ± 0.12 | 2.94 ± 0.075 |
| PNRIKLSKEVPFSYLID [SRB5] | 2.44 ± 0.062 | 2.15 ± 0.058 | 1.98 ± 0.1 | 2.12 ± 0.06 |
| PNSSANNNPLQQQSSQN [GAL11] | 2.99 ± 0.051 | 3.03 ± 0.045 | 3.02 ± 0.033 | 2.98 ± 0.034 |
| PPAYALLGSCQTDGMGL [RPC25] | 2.15 ± 0.11 | 2.57 ± 0.15 | 2.22 ± 0.19 | 2.41 ± 0.13 |
| PPPAPHNLHPQIGQVPL [SNF5] | 2.96 ± 0.059 | 2.94 ± 0.053 | 2.8 ± 0.045 | 3.01 ± 0.042 |
| PQDILSKLYLLLARVFE [SNF11] | 2.14 ± 0.044 | 2.37 ± 0.052 | 2.2 ± 0.069 | 2.4 ± 0.041 |
| PQENDLESKMSEVGDAF [SMC3] | 2.73 ± 0.2 | 3.36 ± 0.2 | 3.43 ± 0.11 | 2.98 ± 0.22 |
| PQIRQEIEQLDQYIQKQ [YGL172W/NUP49] | 2.7 ± 0.061 | 2.76 ± 0.046 | 2.54 ± 0.054 | 2.78 ± 0.049 |
| PQKNVKIQVVDRHIGCV [PRE10] |  | 2.72 ± 0.27 |  |  |
| PQKYVLHPQLHEVQYQE [SIN4] | 1.49 ± 0.13 | 1.88 ± 0.082 | 2.15 ± 0.14 | 1.6 ± 0.064 |
| PQQNKTPFSFGTANNNS [YJL041W/NSP1] | 3.28 ± 0.046 | 3.2 ± 0.038 | 3.12 ± 0.035 | 3.05 ± 0.034 |
| PQSAPNQMGMGTNNGMS [YOR098C/NUP1] | 3.4 ± 0.12 | 3.14 ± 0.13 | 3.29 ± 0.098 | 3.31 ± 0.096 |
| PRDLLRVIIQELRFPSP [PRP28] | 1.74 ± 0.047 | 1.94 ± 0.055 | 1.78 ± 0.064 | 1.72 ± 0.061 |
| PRGVLLYGPPGTGKTML [RPT3] | 3.07 ± 0.089 | 2.57 ± 0.11 | 2.9 ± 0.081 | 2.72 ± 0.074 |
| PRQLHNTHWGLVCPAET [RPB2] | 1.6 ± 0.089 | 1.7 ± 0.07 | 1.47 ± 0.12 | 1.2 ± 0.088 |
